Reference: the supplement of paper PMC7125110
± gives the standard error. For some of these results: Variants at the floor of the assay were thinned out.

B1: glmS ribozyme (parent)
chain: AUAAAAGCGCCAGAACUACAGAAAUGUAGUUGACGAGGAGGAGGUUUAUCGAAUUUUCGGCGGAUGCCUCCAAA

What was measured:
Settings in all cases: with glucosamine-6-phosphate
glucosamine-6-phosphate [1] = variants of: B1; assay: kcat; higher = faster cleavage; RNA array
Procedure, shortened: (§1)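 Sequenced MiSeq chips were the platform: E. coli RNA polymerase transcribed barcoded ribozyme variants on them in situ, and a hybridised Cy3 probe tracked these at 37 °C. After glucosamine-6-phosphate (40 μM to 10 mM) in HEPES/KCl/Mg(OAc)2 buffer was flowed in, tiles were imaged over ~14 h. Signals normalised to baseline and to non-cleaving reference variants were reduced to per-tile medians and fit to one- or two-exponential decays to obtain kobs. kcat and KM were derived through weighted Michaelis–Menten fits across concentrations.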

glucosamine-6-phosphate [2] = variants of: B1; assay: self-cleavage kobs at 2500 uM GlcN6P; higher = faster cleavage; RNA array
Procedure, shortened: as §1

glucosamine-6-phosphate [3] = variants of: B1; assay: self-cleavage kobs at 10000 uM GlcN6P; higher = faster cleavage; RNA array
Procedure, shortened: as §1

glucosamine-6-phosphate [4] = variants of: B1; assay: self-cleavage kobs at 640 uM GlcN6P; higher = faster cleavage; RNA array
Procedure, shortened: as §1

glucosamine-6-phosphate [5] = variants of: B1; assay: self-cleavage kobs at 160 uM GlcN6P; higher = faster cleavage; RNA array
Procedure, shortened: as §1

glucosamine-6-phosphate [6] = variants of: B1; assay: self-cleavage kobs at 40 uM GlcN6P; higher = faster cleavage; RNA array
Procedure, shortened: as §1

glucosamine-6-phosphate [7] = variants of: B1; assay: KM; higher = weaker cofactor use; RNA array
Procedure, shortened: as §1

| Variant | kcat (glucosamine-6-phosphate [1]) [s⁻¹] | self-cleavage kobs at 2500 uM GlcN6P (glucosamine-6-phosphate [2]) [s⁻¹] | self-cleavage kobs at 10000 uM GlcN6P (glucosamine-6-phosphate [3]) [s⁻¹] | self-cleavage kobs at 640 uM GlcN6P (glucosamine-6-phosphate [4]) [s⁻¹] | self-cleavage kobs at 160 uM GlcN6P (glucosamine-6-phosphate [5]) [s⁻¹] | self-cleavage kobs at 40 uM GlcN6P (glucosamine-6-phosphate [6]) [s⁻¹] | KM (glucosamine-6-phosphate [7]) [µM] |
| --- | --- | --- | --- | --- | --- | --- | --- |
| G51A C70U | 1.48e-05 ± 3.4e-06 | – | – | – | – | – | – |
| A48U U55A U56C | 4.34e-05 ± 3.5e-06 | 3.8e-05 ± 1.3e-05 | 4.04e-05 ± 1e-05 | – | – | – | – |
| A48U U54C | 0.000526 ± 0.00015 | 0.000255 ± 5.1e-05 | 0.000349 ± 6.3e-05 | 5.32e-05 ± 1.7e-05 | – | – | – |
| A48U U54G | 0.000434 ± 0.00011 | 0.000261 ± 0.0001 | 0.000397 ± 9.1e-05 | 8.39e-05 ± 4.1e-05 | 6.29e-05 ± 1.9e-05 | – | – |
| G51A C61A | 1.66e-05 ± 3.1e-06 | – | – | – | – | < 1e-05 | – |
| C50U G59A | < 1e-05 | < 1e-05 | < 1e-05 | – | < 1e-05 | < 1e-05 | – |
| A48G C70U | 0.000237 ± 3.3e-05 | 0.000179 ± 2.8e-05 | 0.000192 ± 2.1e-05 | 5.39e-05 ± 1.1e-05 | – | – | 1840 ± 620 |
| A48G C70A | 4.63e-05 ± 4.7e-06 | 4.55e-05 ± 1.2e-05 | 4.22e-05 ± 6.5e-06 | – | – | – | – |
| C50U G66U | 1.12e-05 ± 2.8e-06 | – | – | < 1e-05 | – | – | – |
| A53G G66A | 0.0293 ± 0.014 | 0.0128 ± 0.005 | 0.0293 ± 0.0075 | 0.00474 ± 0.0013 | – | 0.000617 ± 0.00011 | – |
| G51U C61G | < 1e-05 | – | – | – | – | – | – |
| G51A C71A | 1.9e-05 ± 9e-07 | – | – | – | – | – | 105 ± 32 |
| U49A G59U | 1.28e-05 ± 4.5e-06 | – | – | – | – | – | – |
| A53G U57A | 0.000309 ± 2.3e-05 | 0.000134 ± 2.3e-05 | 0.00023 ± 2.9e-05 | 4.7e-05 ± 1.1e-05 | – | – | 3400 ± 490 |
| C50A G66C C67U | 1.02e-05 ± 2.9e-06 | – | – | – | – | – | – |
| A48G A53C | 5.9e-05 ± 9.7e-06 | 7.97e-05 ± 1.7e-05 | 5.4e-05 ± 7.2e-06 | – | – | – | – |
| A48G A53G | 0.00014 ± 3.1e-05 | 8.53e-05 ± 1.3e-05 | 0.000105 ± 1.2e-05 | – | – | – | – |
| G51C C68A | < 1e-05 | – | – | – | – | < 1e-05 | – |
| C50G G63C | 2.84e-05 ± 1.1e-05 | – | – | – | 3.67e-05 ± 1.6e-05 | – | – |
| G51U C68G | 4.24e-05 ± 1.1e-05 | 4.27e-05 ± 1e-05 | – | 5.2e-05 ± 9.7e-06 | – | – | – |
| C50U C58A | < 1e-05 | < 1e-05 | < 1e-05 | – | – | – | – |

| Variant | kcat (glucosamine-6-phosphate [1]) [s⁻¹] | self-cleavage kobs at 2500 uM GlcN6P (glucosamine-6-phosphate [2]) [s⁻¹] | self-cleavage kobs at 10000 uM GlcN6P (glucosamine-6-phosphate [3]) [s⁻¹] | self-cleavage kobs at 640 uM GlcN6P (glucosamine-6-phosphate [4]) [s⁻¹] | self-cleavage kobs at 160 uM GlcN6P (glucosamine-6-phosphate [5]) [s⁻¹] | self-cleavage kobs at 40 uM GlcN6P (glucosamine-6-phosphate [6]) [s⁻¹] | KM (glucosamine-6-phosphate [7]) [µM] |
| --- | --- | --- | --- | --- | --- | --- | --- |
| C50A U55G | 2.27e-05 ± 2.2e-06 | – | – | – | – | – | – |
| A52G C71A | 0.000593 ± 8.1e-05 | 0.000247 ± 3.1e-05 | 0.000466 ± 5.9e-05 | 9.96e-05 ± 1.3e-05 | 3.52e-05 ± 1.4e-05 | – | 3190 ± 730 |
| A52G C71U | 0.00186 ± 0.00014 | 0.00078 ± 0.00015 | 0.00138 ± 0.00012 | 0.000293 ± 2.7e-05 | 7.83e-05 ± 8.6e-06 | 2.74e-05 ± 6e-06 | 3440 ± 380 |
| A52G C71G | 0.00014 ± 1.4e-05 | 0.000157 ± 2.2e-05 | 0.000127 ± 1.2e-05 | 7.87e-05 ± 1.1e-05 | 4.09e-05 ± 1.4e-05 | – | 431 ± 170 |
| C50U U54A C70U | 3.48e-05 ± 1e-05 | 2.99e-05 ± 1.5e-05 | – | 6e-05 ± 2.4e-05 | – | – | – |
| U47G C67G | 0.000689 ± 0.00022 | 0.000429 ± 5.2e-05 | 0.000816 ± 9.6e-05 | 0.000248 ± 2.3e-05 | 0.000105 ± 1.9e-05 | 7.66e-05 ± 1.4e-05 | – |
| U49G C68G | 3.3e-05 ± 5.3e-06 | 3.47e-05 ± 1.3e-05 | – | – | – | – | – |
| A53C C70A | 5.94e-05 ± 1.5e-05 | 6.85e-05 ± 1.7e-05 | 5.03e-05 ± 1.1e-05 | – | – | < 1e-05 | – |
| A53U C68G | 7.87e-05 ± 9.6e-06 | 7.65e-05 ± 1.4e-05 | 7.67e-05 ± 7.9e-06 | 6.63e-05 ± 1.1e-05 | 8.2e-05 ± 1.4e-05 | – | – |
| A53G G59U | 2.73e-05 ± 4.3e-06 | 2.98e-05 ± 1.2e-05 | 2.45e-05 ± 7.8e-06 | – | – | – | – |
| A53G G59A | 0.000102 ± 1.3e-05 | 3.91e-05 ± 1.5e-05 | 7e-05 ± 1.9e-05 | – | – | – | 4360 ± 1300 |
| U49G U56A | 0.000478 ± 0.00021 | 0.000173 ± 4.1e-05 | 0.000466 ± 9.5e-05 | 0.000105 ± 1.9e-05 | – | – | – |
| U49G U56C | 0.000112 ± 1.1e-05 | 0.000127 ± 2.5e-05 | 0.000103 ± 1.2e-05 | 7.28e-05 ± 2.5e-05 | – | – | – |
| U49A C61U | < 1e-05 | – | – | – | – | – | – |
| G51A G59U | < 1e-05 | – | – | < 1e-05 | – | < 1e-05 | 157 ± 36 |
| A53C G60A | 2.08e-05 ± 2.9e-06 | – | – | – | < 1e-05 | < 1e-05 | 7110 ± 2300 |
| G51U U57A | < 1e-05 | < 1e-05 | < 1e-05 | – | – | – | – |
| A48C U54G | 0.000498 ± 0.00012 | 0.000222 ± 2.4e-05 | 0.000402 ± 5e-05 | 0.000114 ± 1.4e-05 | – | – | 2740 ± 1200 |
| C50A U54G | 2.18e-05 ± 1.9e-06 | – | – | – | – | – | – |
| C50A G62U | < 1e-05 | – | < 1e-05 | – | – | < 1e-05 | – |
| A52G G59A | < 1e-05 | – | – | – | – | < 1e-05 | – |
